Experimental data from paper PMC4927282.

Target: caveolin-1 (Cav1) (UniProt Q03135)
Assay: acceptor-photobleaching FRET, CFP/YFP pairs
Conditions: reference: Y14F-CFP/Y14F-YFP pair; sites Y14

UniProt Q03135, sequence (Q03135 whole entry, stated change not applied): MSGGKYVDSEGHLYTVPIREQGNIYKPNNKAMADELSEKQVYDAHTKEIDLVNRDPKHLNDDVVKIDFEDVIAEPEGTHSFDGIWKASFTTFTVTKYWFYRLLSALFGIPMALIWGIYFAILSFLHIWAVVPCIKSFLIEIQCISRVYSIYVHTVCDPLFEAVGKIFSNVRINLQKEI

caveolin-1 (Cav1) (from UniProt Q03135) Y14D-CFP/Y14D-YFP pair
other: FRET efficiency: weaker; reference 0.90 ± 0.13
